The target of this data set is POU2F1 (OCT-1) POU DNA-binding domain, wild type (Homo sapiens, UniProt P14859 280-438). Put plainly: EMSA; dose-dependent, saturation at ~0.8 uM protein; EMSA: 20 mM HEPES pH 7.9, 2 mM MgCl2, 10% glycerol, 2 mM DTT, 36 ng poly(dI-dC), 20 min room temperature; 5% native gel, 0.5x TBE, 4 C. Particulars: protein: recombinant; tags: GST fusion, thrombin-cleaved when indicated (state in EMSA not explicit); label: 5'-32P; blunt. (In general: In EMSA bound probe runs differently from free probe, usually more slowly.)
Chain of POU2F1 (OCT-1) POU DNA-binding domain, wild type (P14859 280-438): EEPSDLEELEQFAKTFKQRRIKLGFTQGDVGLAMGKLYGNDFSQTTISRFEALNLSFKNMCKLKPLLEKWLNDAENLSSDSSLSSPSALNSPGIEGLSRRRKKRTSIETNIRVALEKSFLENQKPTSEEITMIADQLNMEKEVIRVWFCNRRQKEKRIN

B1: ESR1 promoter POU2F1 element probe (-56 to -42) (dsDNA)
DNA 1: GCTATGGCCTATGCATATGAAGCCTTTATT
DNA 2: AATAAAGGCTTCATATGCATAGGCCATAGC
As for B1, the binding result was “binds”.

These data come from paper PMC13280575, “The PER2:BRCA1:POU2F1(OCT-1) ternary complex represents a multi-component scaffold model for circadian gene regulation”.
